According to patent publication US20110243967A1:

What was measured:
[1] = biological target: pMCMV-loaded H-2 L^d (mouse) (UniProt P01897)
[2] = biological target: p2Ca-loaded H-2 L^d (mouse) (UniProt P01897); test: flow cytometry, direct saturation of FITC-30.5.7 Fab on peptide-loaded RMA-S L^d cells
[3] = biological target: QL9-loaded H-2 L^d (mouse) (UniProt P01897); test: as above
[4] = biological target: SL9-loaded H-2 L^d (mouse) (UniProt P01897); test: as above
[5] = biological target: p2Ca-loaded H-2 L^d (mouse) (UniProt P01897); test: flow cytometry on L^d cells loaded with graded peptide concentrations
[6] = biological target: QL9-loaded H-2 L^d (mouse) (UniProt P01897); test: as above
[7] = biological target: serologically reactive H-2 L^d on RENCA cells (murine) (UniProt P01897); test: flow cytometry on γ-IFN stimulated RENCA cells (5-50 units/ml)
[8] = biological target: p2Ca-loaded H-2 L^d (mouse) (UniProt P01897); test: flow cytometry on peptide-loaded RMA-S L^d cells; mAb 30.5.7 then PE-labelled goat anti-mouse IgG
[9] = biological target: QL9-loaded H-2 L^d (mouse) (UniProt P01897); test: as above
tum (mouse) = test: as above
[10] = biological target: SL9-loaded H-2 L^d (mouse) (UniProt P01897); test: as above
[11] = biological target: pMCMV-loaded H-2 L^d (mouse) (UniProt P01897); remark: listed apart in the source
[12] = biological target: unloaded H-2 L^d on RMA-S L^d cells (mouse) (UniProt P01897); test: flow cytometry on RMA-S L^d cells, no peptide, bar '37 degrees'; mAb 30.5.7 then PE-labelled goat anti-mouse IgG
[13] = biological target: serologically reactive H-2 L^d on RENCA cells (murine) (UniProt P01897); test: flow cytometry on unstimulated RENCA cells
[14] = biological target: unloaded H-2 L^d on RMA-S L^d cells (mouse) (UniProt P01897); test: flow cytometry on RMA-S L^d cells, no peptide, bar '22 degrees' (the legend says 27°C); mAb 30.5.7 then PE-labelled goat anti-mouse IgG
[15] = biological target: SIY-loaded H-2 K^bm3 (mouse); test: flow cytometry on peptide-loaded T2 K^bm3 cells
[16] = biological target: p2Ca-loaded H-2 L^d (mouse) (UniProt P01897); test: competition with constant FITC-30.5.7 Fab on peptide-loaded RMA-S L^d cells, flow cytometry
[17] = biological target: QL9-loaded H-2 L^d (mouse) (UniProt P01897); test: flow cytometry on RMA-S L^d cells loaded with 100 µM peptide; two-fold dilutions of soluble monovalent 2C TCR, detected with H57-FITC
[18] = biological target: QL9-loaded H-2 L^d (mouse) (UniProt P01897); test: flow cytometry, serial dilutions on QL9-loaded RMA-S L^d cells, detection with H57-FITC
[19] = biological target: p2Ca-loaded H-2 L^d (mouse) (UniProt P01897); test: flow cytometry, serial dilutions on p2Ca-loaded RMA-S L^d cells, detection with H57-FITC

QL9-loaded H-2 L^d (mouse), sequence (P01897 25-362): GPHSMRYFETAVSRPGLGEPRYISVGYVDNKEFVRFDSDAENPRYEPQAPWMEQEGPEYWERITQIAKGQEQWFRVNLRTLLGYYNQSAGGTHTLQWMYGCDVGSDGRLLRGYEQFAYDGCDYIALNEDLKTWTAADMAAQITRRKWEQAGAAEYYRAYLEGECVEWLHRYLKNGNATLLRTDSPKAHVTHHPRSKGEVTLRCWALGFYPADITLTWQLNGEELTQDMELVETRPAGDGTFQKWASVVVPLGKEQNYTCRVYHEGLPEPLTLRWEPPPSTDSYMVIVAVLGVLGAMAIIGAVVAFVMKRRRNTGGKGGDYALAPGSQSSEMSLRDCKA
serologically reactive H-2 L^d on RENCA cells (murine), sequence (P01897 25-362): as above
p2Ca-loaded H-2 L^d (mouse), sequence (P01897 25-362): as above
pMCMV-loaded H-2 L^d (mouse), sequence (P01897 25-309): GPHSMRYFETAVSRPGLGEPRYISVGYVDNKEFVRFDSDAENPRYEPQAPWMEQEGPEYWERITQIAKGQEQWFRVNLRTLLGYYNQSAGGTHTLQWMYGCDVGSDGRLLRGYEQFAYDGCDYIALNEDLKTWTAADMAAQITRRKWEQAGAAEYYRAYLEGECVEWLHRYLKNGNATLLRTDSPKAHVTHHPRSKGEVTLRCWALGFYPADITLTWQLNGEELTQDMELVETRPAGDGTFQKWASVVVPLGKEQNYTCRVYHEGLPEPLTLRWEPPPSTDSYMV
SL9-loaded H-2 L^d (mouse), sequence (P01897 25-309): as above
unloaded H-2 L^d on RMA-S L^d cells (mouse), sequence (P01897 25-309): as above
soluble divalent 2C TCR/Ig, sequence (A2KF29 whole entry, looked up, tested part not stated): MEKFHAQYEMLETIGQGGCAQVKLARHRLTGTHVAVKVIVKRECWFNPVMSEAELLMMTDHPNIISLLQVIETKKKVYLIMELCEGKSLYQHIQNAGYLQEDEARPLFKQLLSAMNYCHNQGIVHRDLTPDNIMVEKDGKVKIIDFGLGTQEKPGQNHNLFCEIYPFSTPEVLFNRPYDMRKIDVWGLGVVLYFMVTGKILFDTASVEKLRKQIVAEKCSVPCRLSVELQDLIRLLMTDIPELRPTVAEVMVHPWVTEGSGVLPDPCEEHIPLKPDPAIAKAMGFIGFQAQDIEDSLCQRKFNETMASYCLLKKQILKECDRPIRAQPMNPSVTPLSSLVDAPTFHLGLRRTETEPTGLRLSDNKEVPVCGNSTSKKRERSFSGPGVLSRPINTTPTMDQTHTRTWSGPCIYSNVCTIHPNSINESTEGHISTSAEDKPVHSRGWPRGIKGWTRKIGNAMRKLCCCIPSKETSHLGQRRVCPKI

With FITC-labeled 30.5.7 Fab the Kd [1] was 4.8 nM, the Kd [2] was 5.8 nM and the Kd [3] was 12.2 nM. It also gave a Kd [4] of 4.8 to 6.4 nM.

Work on mAb 30.5.7 (antibody) yielded an MCF [5] of 3000, an MCF [6] of 3000 and an MCF [7] of 2670 to 3040. It also gave a Mean Channel Fluorescence [8] of 693, a Mean Channel Fluorescence [9] of 688 and a Mean Channel Fluorescence (tum (mouse)) of 578. The Mean Channel Fluorescence [10] was 556, the Mean Channel Fluorescence [11] was 648 and the Mean Channel Fluorescence (gp 70 (mouse)) was 677. The Mean Channel Fluorescence [12] was 60, the MCF [13] was 500 and the Mean Channel Fluorescence [14] was 347.

Work on “soluble divalent 2C TCR/Ig (from UniProt A2KF29)” yielded an MCF [15] of 36.

With soluble monovalent 2C TCR the Kapp [16] was greater than 2000 nM, the Kd [16] was greater than 2000 nM and the EC50 (read off the curve) [17] was 300 nM. The concentration required to detect binding [18] was greater than 100 nM and the concentration required to detect binding [19] was greater than 3000 nM.
